Consider 8 molecules from patent US20230416380A1 (AJOU UNIVERSITY INDUSTRY ACADEMIC COOPERATION FOUNDATION, published 2023).

Numbering of substitutions follows the chain as printed.

Assay [1] concerns the target T1, human IL-5Rα on cells (TF-1/IL-5Rα cells stably overexpressing IL-5Rα; human eosinophils) (human, UniProt Q01344 21-420).
T1 sequence (looked up): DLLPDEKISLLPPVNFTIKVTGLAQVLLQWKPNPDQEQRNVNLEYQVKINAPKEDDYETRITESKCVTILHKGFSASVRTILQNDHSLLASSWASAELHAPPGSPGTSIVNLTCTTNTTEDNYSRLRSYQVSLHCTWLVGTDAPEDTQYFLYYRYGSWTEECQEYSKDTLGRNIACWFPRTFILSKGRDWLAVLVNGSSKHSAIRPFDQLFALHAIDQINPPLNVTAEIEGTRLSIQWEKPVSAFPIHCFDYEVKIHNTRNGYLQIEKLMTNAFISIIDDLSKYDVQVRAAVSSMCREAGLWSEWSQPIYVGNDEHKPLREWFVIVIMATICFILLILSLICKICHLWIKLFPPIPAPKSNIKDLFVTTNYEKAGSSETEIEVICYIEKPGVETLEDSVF
The assay can be described thus: cell-based or functional assay.

Assay [2] addresses T2, sIL-5Rα (extracellular domain of human IL-5 receptor alpha subunit, Asp1-Asn313 of SEQ ID NO: 19, C-terminal … (human, UniProt Q01344 21-333)).
T2 construct: also called sIL-5Rα antigen protein
T2 sequence: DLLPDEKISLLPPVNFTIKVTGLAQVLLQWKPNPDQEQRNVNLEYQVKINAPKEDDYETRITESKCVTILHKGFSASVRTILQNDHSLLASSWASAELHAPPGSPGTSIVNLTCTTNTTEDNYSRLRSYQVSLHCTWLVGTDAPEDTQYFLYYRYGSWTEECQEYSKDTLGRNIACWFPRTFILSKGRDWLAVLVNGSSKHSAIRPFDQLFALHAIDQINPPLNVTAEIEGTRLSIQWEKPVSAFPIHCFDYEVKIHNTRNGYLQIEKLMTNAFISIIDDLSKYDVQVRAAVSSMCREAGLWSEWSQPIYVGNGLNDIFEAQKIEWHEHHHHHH
Kind of assay: binding competition ELISA: IL-5-mFc coated (competitor), antibody dilutions plus 100 nM IL-5Rα, anti-his-HRP; 5R65 antibody; IL-5-mFc coated, 100 nM IL-5Rα, anti-his-HRP. As to the method:
(§1) Prior to biological efficacy evaluation, binding competition ELISA was performed to determine whether or not anti-IL-5Rα humanized antibodies bind competitively with IL-5 to the IL-5 binding site of IL-5Rα. Specifically, IL-5 (Uniprot code: P05113, Ile20-Ser134) was fused to the G4S linker and the heavy-chain constant region (hinge-CH2-CH3) of mouse IgG2a, was subjected to transient transfection and purified (FIG. 5C). The purified IL-5-mFc proteins were immobilized at a density of 100 ng/well on a 96-well plate at room temperature for 1 hour, and blocked using 0.1% PBST containing 2% skim milk at room temperature for 1 hour. After discarding the solution and then washing the same three times with 0.1% PBST, mixtures of anti-IL-5a antibody [2-fold dilution at 2,000 nM] at various concentrations were prepared and each mixture was added in an amount of 25 μl/well to the blocked plate, 100 nM IL-5Rα was further added at 25 μl/well for 1 hour, followed by reaction at room temperature for 1 hour. […] After discarding the solution and washing three times with PBST, a TMB solution was added in an amount of 50 μl/well, color development was induced at room temperature for 2 minutes and 30 seconds, the reaction was stopped using H₂SO₄ (2N), and the absorbance at 450 nm was measured.
For orientation: In an ELISA, binding on a coated surface is turned into a signal by an enzyme label.

The target in assay [3] is T2, sIL-5Rα (extracellular domain of human …). The assay can be described thus: BLI (Octet QKe), comparison of KD values. How it is done: (§2) Specifically, 1× kinetic buffer was prepared by diluting 10× kinetic buffer (ForteBio, 18-1105) in PBS. […] Affinity was calculated with Octet Data Analysis software 11.0 in a 1:1 binding model.
Background: In BLI a coated tip is dipped into the sample, and binding shifts an interference pattern.

Assay [4] shares this target. The assay can be described thus: competition ELISA: IL-5-mFc coated at 100 ng/well, antibody dilution series mixed with His-tagged sIL-5Rα, bound sIL-5Rα detected with anti-His-HRP; blocked ligand IL-5-mFc.
For assay [5] the target is unchanged. The assay can be described thus: BLI (Octet QKe), antibody on AHC sensor, sIL-5Rα in solution, 1:1 model. How it is done: as §2
For assay [6] the target is unchanged. Kind of assay: binding competition ELISA: IL-5-mFc coated (competitor), antibody dilutions plus 100 nM IL-5Rα, anti-his-HRP; 5R86 antibody; IL-5-mFc coated, 100 nM IL-5Rα, anti-his-HRP. As to the method: as §1
For assay [7] the target is unchanged. Kind of assay: BLI (Octet QKe), antibody on AHC sensor, sIL-5Rα in solution, 1:1 model. As to the method: as §2
(§3) Therefore, it was confirmed that the order of affinity was benralizumab>m2B7>hu2B7.
The source holds these as a separate data set.

The target in assay [8] is T3, human IL-5Rα on cells (TF-1/IL-5Rα cells stably overexpressing IL-5Rα; human eosinophils) (human) (UniProt Q01344).
T3 sequence (looked up): T1 sequence (looked up)
The assay can be described thus: cell-based or functional assay.

Assay [9] concerns the target T4, sIL-5Rα (extracellular domain of human IL-5 receptor alpha subunit, Asp1-Asn313 of SEQ ID NO: 19, C-terminal Avi tag and 6×His tag, expressed in HEK293F) (human) (UniProt Q01344).
T4 sequence: T2 sequence
Kind of assay: BLI (Octet QKe), antibody on AHC sensor, sIL-5Rα in solution, 1:1 model.

In assay [10] the target is T4, sIL-5Rα (extracellular domain of human IL-5 receptor alpha subunit, Asp1-Asn313 of SEQ ID NO: 19, C-terminal Avi tag and 6×His tag, expressed in HEK293F) (human). Kind of assay: binding competition ELISA: IL-5-mFc coated (competitor), antibody dilutions plus 100 nM IL-5Rα, anti-his-HRP.
Assay [11] deals with T2, sIL-5Rα (extracellular domain of human …). The assay can be described thus: BLI (Octet QKe), antibody on sensor, sIL-5Rα in solution, 1:1 model. As to the method:
as §2, §3

B1: 5R65.7 (anti-IL-5Rα humanized antibody, affinity matured from 5R65) (antibody, V domains shown)
VH: QVQLVQSGAEVKKPGSSVKVSCKASGYTFTSYWINWVRQAPGQGLEWIGHIYPNKNENYYNHKFKDKATLTVDKSTNTAYMELSSLRSEDTAVYYCTREFYGRQYYQAMDYWGQGTTLTVSS
VL: DIQMTQSPSTLSASVGDRVTITCKASQNVGTAVAWYQQKPGKAPKLLIYWASTRHTGVPDRFSGSGSGTDFTLTISSLQPDDFATYYCQQFGRYPYTFGSGTKVEVK
With B1, in assay [1], the “abs IC50, inhibition of IL-5-dependent proliferation of TF-1/IL-5Rα cells” value was 0.57 nM.

B2: 5R65 (anti-IL-5Rα humanized antibody) (antibody, V domains shown)
VH: B1 VH with E99D, F100Y, Q104S, Q107Y
VL: B1 VL
notes: Only VH-CDR2 of hu2B7 was diversified, the light chain is that of hu2B7; also called 5R65 antibody
Consider B2, for which the 50% inhibitory concentration (IC50) (commonly the concentration that gives 50% inhibition) in assay [2] amounted to 9.5 nM. Also, the “affinity relative to the benralizumab analogue” value in [3] is approximately 2 fold.

B3: 5R80 (anti-IL-5Rα humanized antibody) (antibody, IgG1, V domains shown)
VH: B1 VH with N54Q, N56T, E57L, N58T, Y59I, E99D, F100Y, Q104S, Q107Y
VL: B1 VL
Regarding B3, in [4], the IC50 is 24.2 nM. For the same molecule, in [5], the Kd (commonly a measure of binding affinity in units of concentration) is 16.2 nM; the off-rate constant (koff) (in general, the rate constant with which the complex falls apart) stood at 0.000365 s⁻¹; the kon (in general, the second-order rate constant of association) was 22500 M⁻¹ s⁻¹.

B4: 5R86 (anti-IL-5Rα humanized antibody) (antibody, IgG1, V domains shown)
VH: QVQLVQSGAEVKKPGSSVKVSCKASGYTFTSYWINWVRQAPGQGLEWIGHIYPTSSVKFYNNKFKDKATLTVDKSTNTAYMELSSLRSEDTAVYYCTRDYYGRSYYYAMDYWGQGTTLTVSS
VL: B1 VL
Turning to B4, the half-maximal inhibitory concentration (IC50) in assay [6] was 14.1 nM. In [5], this molecule showed a Kd of 11.8 nM, a koff of 0.000325 s⁻¹ and an on-rate (kon) of 27600 M⁻¹ s⁻¹.

B5: hu2B7 (humanized m2B7) (antibody, V domains shown)
VH: B4 VH with T54S, S55E, V57Y, K58T, F59N, N62Q
VL: B1 VL
notes: Expressed from plasmids encoding HC and LC and purified on protein A; also called humanized antibody hu2B7
With B5, the concentration for half-maximal inhibition (IC50) in assay [4] was 57.4 nM. In [7], this molecule yielded a dissociation constant Kd of 47.8 nM, a koff of 0.00106 s⁻¹ and an association rate constant (kon) of 22200 M⁻¹ s⁻¹.

B6: 5R68 (anti-IL-5Rα humanized antibody) (antibody, IgG1, V domains shown)
VH: B4 VH with S55A, S56T, V57I, K58A, F59V, N62D
VL: B1 VL
Take B6: the concentration for half-maximal inhibition (IC50) in assay [4] worked out at 28.8 nM. In assay [5], the dissociation constant Kd amounted to 24.1 nM, the koff came to 0.000566 s⁻¹ and the kon came out at 23500 M⁻¹ s⁻¹.

B7: benralizumab analogue (benralizumab variable regions with an IgG1 constant region) (antibody, INN chains, looked up, V domains shown)
VH: EVQLVQSGAEVKKPGASVKVSCKASGYTFTSYVIHWVRQRPGQGLAWMGYINPYNDGTKYNERFKGKVTITSDRSTSTVYMELSSLRSEDTAVYLCGREGIRYYGLLGDYWGQGTLVTVSS
VL: DIQMTQSPSSLSASVGDRVTITCGTSEDIINYLNWYQQKPGKAPKLLIYHTSRLQSGVPSRFSGSGSGTDFTLTISSLQPEDFATYYCQQGYTLPYTFGQGTKVEIK
modifications: fucosylated IgG1
On to B7, for which the absolute IC50 (Abs IC50), inhibition of IL-5-dependent proliferation of TF-1/IL-5Rα cells in [8] stood at 1.99 nM. In assay [9], this molecule registered a Kd of 26.8 nM, a koff of 0.0011 s⁻¹ and a kon of 41100 M⁻¹ s⁻¹. Further, in assay [10], the IC50 is 9.8 nM.

B8: m2B7 (anti-IL-5Rα mouse antibody) (antibody, V domains shown)
VH: QVQLQQPGAELVRPGASVKLSCKASGYTFTSYWINWVKQRPGQGLEWIGHIYPSESYTNYNQKFKDKATLTVDKSSSTAYMQLSSPTSEDSAVYYCTRDYYGRSYYYAMDYWGQGTSVTVSS
VL: DIVMTQSHKFMSTSVGDRVSITCKASQNVGTAVAWYQQKPGQSPKLLIYWASTRHTGVPDRFTGSGSGTDFTFTISNVQSEDLADYFCQQFGRYPYTFGGGTKLEIK
notes: also called mouse antibody m2B7; mB7
In [11], B8 displayed a Kd of 40.2 nM, a koff of 0.000834 s⁻¹ and an on-rate (kon) of 20700 M⁻¹ s⁻¹.
